Laboratory results as given in PMC8427768.

Target: T1, Elk1 ETS domain (human, UniProt P19419 1-93)
T1 sequence: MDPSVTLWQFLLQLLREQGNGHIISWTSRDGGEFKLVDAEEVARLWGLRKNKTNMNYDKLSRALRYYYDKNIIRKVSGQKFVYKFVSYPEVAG
Test: SPR

B1: E74 (dsDNA)
DNA 1: CTGAATAACCGGAAGTAACTCATC
DNA 2: GATGAGTTACTTCCGGTTATTCAG
Binder B1 has a Kd of 0.02 ± 0.01 nM.

B2: SC1 (dsDNA)
DNA 1: CGGCCAAGCCGGAAGTGAGTGCC
DNA 2: GGCACTCACTTCCGGCTTGGCCG
Binder B2 has a Kd of 0.06 ± 0.01 nM.
